Sequences and labels used below:
B1: PulMCTD (C-terminal domain of PulM, residues 79-161) (domain or fragment, Klebsiella oxytoca)
chain: SPEEPSTVIMREAARHGLTIVRLQPQGSRLSLTVQPADFQALMAWLDALGQAGMTTATLAVTAVAQQPGWVTVNTLVLERSDEK
B2: PulLCTD (C-terminal domain of PulL, residues 312-398) (domain or fragment, Klebsiella oxytoca)
chain: SNAGARPALISRLGALQQIIDDTPGIRLRTLSFDAARNALQLEISAVSSQALEQFSQRARARFRVQTGEMKPRADGIEGRLTLEGNDA

Series [1] addresses B2. The experiment in a line: native MS.
Series [2] concerns the molecule itself.
In series [3] the target is B1. Description: NMR titration.
The series “AUC + other: NMR” deals with the molecule itself. The experiment in a line: AUC + other: NMR.

Read-outs that look alike come from different tables or passages of the source.

For B1, the binding result in series [1] is “binds”. The “stoichiometry N” value in series [2] stood at 2.
For the molecule B2, the “stoichiometry N” value in series [3] was determined as 1 PulLCTD per PulMCTD; in the series “AUC + other: NMR” it was 2.

For the origin of these results see doi:10.1101/2022.07.16.500195 (bioRxiv, 2022).
